# Measured values: patent US20140323392A1 (UNIVERSITY OF UTAH RESEARCH FOUNDATION, published 2014)
# Read-outs that look alike come from different tables or passages of the source. Bridges are numbered along the chain shown (N, C = ends). Roman numbers before positions name the chains, in order. Where no end group is shown, it is not given here. [ ]: non-standard residue; d: D form.
# B1: C0C(PIE7-GK)3 (peptide)
# peptide 1: Ac-G[dA][dC][dD][dY][dP][dE][dW][dQ][dW][dL][dC][dA][dA]G[dK]-NH2
# peptide 2: Ac-G[dA][dC][dD][dY][dP][dE][dW][dQ][dW][dL][dC][dA][dA]G[dK][dK]-NH2
# modifications: disulfide I:3-I:12, II:3-II:12 (inferred); also: trimer, C-terminal Lys residues linked by zero length spacers
# B2: Chol-PEG36-PIE12-trimer (peptide)
# peptide: Ac-[dH][dP][dC][dD][dY][dP][dE][dW][dQ][dW][dL][dC][dE][dL]GK-NH2
# modifications: disulfide 3-12 (inferred); not fully specified (residue 16); also: trimer on scaffold via PEG4, fourth arm PEG36 (PEG24 + PEG12 through D-Cys) carrying thiocholesterol
# B3: PEG4-PIE12-trimer (peptide)
# peptide: Ac-[dH][dP][dC][dD][dY][dP][dE][dW][dQ][dW][dL][dC][dE][dL]GK-NH2
# modifications: disulfide 3-12 (inferred); not fully specified (residue 16); also: homotrimer on trimethylolethane-triNHS ester scaffold
# B4: PIE7-GK short claw (peptide)
# peptide: Ac-G[dA][dC][dD][dY][dP][dE][dW][dQ][dW][dL][dC][dA][dA]G[dK]-NH2
# modifications: disulfide 3-12 (inferred); also: linked directly to trifunctional crosslinker TSAT
# B5: N9N(PIE7)2 (peptide)
# peptide: Ac-[dK]G[dA][dC][dD][dY][dP][dE][dW][dQ][dW][dL][dC][dA][dA]-NH2
# modifications: disulfide 4-13 (inferred); also: dimer, N- to N-terminal Lys crosslinked by Bis-dPEG9 NHS ester
# B6: C5C-PIE12-trimer (peptide)
# peptide 1: Ac-[dH][dP][dC][dD][dY][dP][dE][dW][dQ][dW][dL][dC][dE][dL]G[dK]-NH2
# peptide 2: Ac-[dH][dP][dC][dD][dY][dP][dE][dW][dQ][dW][dL][dC][dE][dL]G[dK][dK]-NH2
# modifications: disulfide I:3-I:12, II:3-II:12 (inferred); also: trimer: C-terminal Lys linked by PEG5 spacers
# B7: PEG5-ΔHP-PIE12-trimer (peptide)
# peptide: [dC][dD][dY][dP][dE][dW][dQ][dW][dL][dC][dE][dL]GK
# modifications: disulfide 1-10 (inferred); not fully specified (residue 14); also: homotrimer on trimethylolethane-triNHS ester scaffold
# B8: C5C(PIE7-GK)3 (peptide)
# peptide 1: Ac-G[dA][dC][dD][dY][dP][dE][dW][dQ][dW][dL][dC][dA][dA]G[dK]-NH2
# peptide 2: Ac-G[dA][dC][dD][dY][dP][dE][dW][dQ][dW][dL][dC][dA][dA]G[dK][dK]-NH2
# modifications: disulfide I:3-I:12, II:3-II:12 (inferred); also: trimer: C-terminal Lys linked by PEG5 spacers
# B9: PEG4-ΔHP-PIE12-trimer (peptide)
# peptide: [dC][dD][dY][dP][dE][dW][dQ][dW][dL][dC][dE][dL]GK
# modifications: disulfide 1-10 (inferred); not fully specified (residue 14); also: homotrimer on trimethylolethane-triNHS ester scaffold
# Tests used:
# Assay in all cases: cell-based or functional assay
# [1] = target: T1, HIV-1 JRFL envelope glycoprotein gp41 (N-trimer of the prehairpin intermediate) (HIV-1 strain JRFL)
# [2] = target: T2, HIV-1 HXB2 envelope glycoprotein gp41 (N-trimer of the prehairpin intermediate) (HIV-1 strain HXB2, UniProt P04578 512-856)
# [3] = target: T3, HIV-1 HXB2 envelope glycoprotein gp41 with resistance mutations E560K/V570I (HIV-1 strain HXB2, UniProt P04578 33-856)
# [4] = target: T2, HIV-1 HXB2 envelope glycoprotein gp41 …; remark: listed apart in the source
# [5] = target: T4, HIV-1 HXB2 envelope glycoprotein gp41 with resistance mutation Q577R (HIV-1 strain HXB2, UniProt P04578 33-856)
# [6] = target: T3, HIV-1 HXB2 envelope glycoprotein gp41 …; remark: listed apart in the source
# [7] = target: T2, HIV-1 HXB2 envelope glycoprotein gp41 …; remark: listed apart in the source
# [8] = target: T4, HIV-1 HXB2 envelope glycoprotein gp41 …; remark: listed apart in the source
# [9] = target: T1, HIV-1 JRFL envelope glycoprotein gp41 …; remark: listed apart in the source
# [10] = target: T2, HIV-1 HXB2 envelope glycoprotein gp41 …; remark: listed apart in the source
# [11] = target: T2, HIV-1 HXB2 envelope glycoprotein gp41 …; remark: listed apart in the source
# [12] = target: T1, HIV-1 JRFL envelope glycoprotein gp41 …; remark: listed apart in the source
Binder,"IC50, JRFL pseudovirion entry [1]","IC50, HXB2 pseudovirion entry [2]","IC50, HXB2 pseudovirion entry [4]","IC50, HXB2 pseudovirion entry [10]",further results
B1,16.1 nM,0.12 nM,,,
B2,,,0.0054 nM,,"IC50, E560K/V570I HXB2 pseudovirion entry [3]: 0.0045 nM; IC50, Q577R HXB2 pseudovirion entry [5]: 2.7 nM"
B3,,,,0.72 nM,"IC50, antiviral potency, E560K/V570I (HXB2 background) [6]: 0.89 nM; IC50, antiviral potency, WT HXB2 [7]: 0.72 nM; IC50, antiviral potency, Q577R (HXB2 background) [8]: > 3000 nM; IC50, JRFL pseudovirion entry [9]: 2.1 nM"
Ac-[dH][dP][dC][dD][dY][dP][dE][dW][dQ][dW][dL][dC][dE][dL]GK-NH2 (disulfide 3-12 (inferred); not fully specified (residue 16)) [Chol-PEG2-PIE12 (monomer)],,,58 nM,69 nM,
B4,86.6 nM,0.23 nM,,,
B5,2300 nM,1.9 nM,,,fold improvement of IC50 over the corresponding monomer [11]: ~325 fold
B6,2.8 nM,,0.33 nM,,"IC50, JRFL pseudovirion entry [12]: 2.8 nM; IC50, E560K/V570I HXB2 pseudovirion entry [3]: 0.84 nM; IC50, Q577R HXB2 pseudovirion entry [5]: 2960 nM"
B7,,,,380 nM,
Ac-G[dA][dC][dD][dY][dP][dE][dW][dQ][dW][dL][dC][dA][dA]G[dK]-NH2 (disulfide 3-12 (inferred); also: linked to trifunctional crosslinker LC-TSAT) [PIE7-GK long claw],20.6 nM,0.12 nM,,,
[dC][dD][dY][dP][dE][dW][dQ][dW][dL][dC][dE][dL]G[dK] (disulfide 1-10 (inferred)) [ΔHP-PIE12],,,,3100 nM,fold loss of potency against PIE12 [11]: 84 fold
Ac-[dH][dP][dC][dD][dY][dP][dE][dW][dQ][dW][dL][dC][dE][dL]G[dK]-NH2 (disulfide 3-12 (inferred)) [PIE12],578 nM,,,,"IC50, JRFL pseudovirion entry [12]: 580 nM"
"Ac-[dK]G[dA][dC][dD][dY][dP][dE][dW][dR][dW][dL][dC][dA][dA][dA]-NH2 (disulfide 4-13 (inferred); also: dimer, Lys crosslinked by PEG) [PEG-(PIE2-AAA)2]",,,,,"IC50, pseudovirion entry [11]: 21 nM; fold improvement of IC50 over the corresponding monomer [11]: ~70 fold"
B8,6.7 nM,0.13 nM,,,
B9,,,,300 nM,
Ac-[dH][dP][dC][dD][dY][dP][dE][dW][dQ][dW][dL][dC][dE][dL]GK-NH2 (disulfide 3-12 (inferred); not fully specified (residue 16)) [Chol-PEG24-PIE12 (monomer)],,,0.4 nM,0.64 nM,
Ac-[dH][dP][dC][dD][dY][dP][dE][dW][dQ][dW][dL][dC][dE][dL]GK-NH2 (disulfide 3-12 (inferred); not fully specified (residue 16)) [Chol-PEG12-PIE12 (monomer)],,,11 nM,12 nM,"IC50, JRFL pseudovirion entry [12]: 200 nM"
